Publication PMC5063806, “Data for peptide-binding assay with oriented immobilization of GRP78 in Biacore” (Data in Brief, 2016)

Target: T1, human GRP78, N-His-tagged (human, UniProt P11021 19-654)
T1 construct: GRP78, human; 6-His tag at the N-terminus; also called N-His-tagged GRP78; not shown: His6, N-terminal, kept
Experiment: SPR; modified protocol, Biacore X: N-His-tagged GRP78 covalently immobilised (EDC/NHS, Ni2+ orientation, about 5000~6000 RU) on chip NTA; running buffer HBS-P pH 7.4 with 1 mM glycine; L-peptide 6.25-100 uM; both peptides at 50 uM in Fig. 3; fit with BIAevaluation 4.1, default settings
Conditions: both partners purified

T1 sequence (P11021 19-654): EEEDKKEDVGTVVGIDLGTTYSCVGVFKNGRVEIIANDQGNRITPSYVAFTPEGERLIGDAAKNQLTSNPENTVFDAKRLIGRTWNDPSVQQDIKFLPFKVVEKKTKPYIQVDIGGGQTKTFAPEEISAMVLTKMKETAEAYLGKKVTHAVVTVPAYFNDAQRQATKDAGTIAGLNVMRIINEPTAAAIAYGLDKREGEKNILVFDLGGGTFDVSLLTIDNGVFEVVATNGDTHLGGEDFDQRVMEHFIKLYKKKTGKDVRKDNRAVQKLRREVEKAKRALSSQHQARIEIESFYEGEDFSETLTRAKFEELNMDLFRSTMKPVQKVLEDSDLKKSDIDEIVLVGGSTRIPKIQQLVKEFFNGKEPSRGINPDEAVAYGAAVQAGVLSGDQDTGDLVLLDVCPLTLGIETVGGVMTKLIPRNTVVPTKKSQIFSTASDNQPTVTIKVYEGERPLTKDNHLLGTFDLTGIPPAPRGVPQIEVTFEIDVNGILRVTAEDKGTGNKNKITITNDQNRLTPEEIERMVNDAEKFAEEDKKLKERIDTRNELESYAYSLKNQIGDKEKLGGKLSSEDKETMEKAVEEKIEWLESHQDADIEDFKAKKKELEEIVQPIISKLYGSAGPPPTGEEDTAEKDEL

Kd: ~10 µM
Binder: RLLDTNRPLLPY (Probably synthetic) [L-peptide (RLLDTNRPLLPY)]
